The values that follow come from patent publication CN113121684A (TIANJIN JIKUN PHARMACEUTICAL TECH CO LTD, dated 2021).

The target in the assay is T1, 人源FSTL1蛋白 (卵泡抑素样蛋白1, Follistatin-like 1) (human, UniProt Q12841 21-308, limits assumed).
T1 construct: Soluble protein, used as analyte in SPR and as labelled ligand in MST; The construct is not described; also called 抗原; 靶点蛋白
T1 sequence (looked up): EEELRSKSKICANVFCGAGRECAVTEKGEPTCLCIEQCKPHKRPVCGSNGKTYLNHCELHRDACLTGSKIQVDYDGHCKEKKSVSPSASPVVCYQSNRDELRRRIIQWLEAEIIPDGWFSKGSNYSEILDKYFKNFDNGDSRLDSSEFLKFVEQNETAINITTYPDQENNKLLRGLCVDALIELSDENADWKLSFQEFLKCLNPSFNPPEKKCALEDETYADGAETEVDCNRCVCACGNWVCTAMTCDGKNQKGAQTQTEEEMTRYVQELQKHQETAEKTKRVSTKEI
Nature of the assay: SPR (Biacore T200), antibody amine-coupled on CM5 chip, FSTL1 protein injected. A general note: SPR reads the build-up and loss of mass on a sensor chip optically.

B1: 人源FSTL1中和性抗体JK07 (全长IgG) (antibody, V domains shown)
VH: QVQLVQSGAEVKKPGSTVKVSCKSSEGTFNNYGISWIRQAPGQGLEWMGGVIPIIGIGNFPQKFQDRVTMTADKFTGTAYMELSSLRSEDTAVYYCARHLGGRNSYDVFDIWGQGTLVTVSS
VL: EIVLTQSPLSLPVTLGQTASISCRSSHSLVQSNGNTYLTWFQQRPGQSPRRLIYKVSSRDSGVPDRFSGSGSGTDFTLKISRVEAEDVGVYYCMQARQTPWTFGQGTKVEIKR
notes: also called JK07抗体
The Kd is the equilibrium constant for the complex coming apart. B1 had a Kd of 6.17 nM.
